Experiments:
[1] = target: the molecule itself; assay: AUC; multi-speed sedimentation equilibrium at varying protein concentration, 20 mM Tris-HCl pH 8, 150 mM NaCl, 0.5 mM TCEP, interference data, global fit with SEDPHAT; monomer to dimer
[2] = target: the molecule itself; assay: as above; remark: listed apart in the source

B1: PFV-Gag CtDCEN (domain or fragment)
chain: RTHGTFPMHQLGNVIKGIVDQEGVATAYTLGMMLSGQNYQLVSGIIRGYLPGQAVVTALQQRLDQEIDNQTRAETFIQHLNAVYEILGLNARGQSIR
notes: Gag of Prototype foamy virus (PFV), residues 381-477 (CtDCEN), amplified from plasmid pcziGag4, in pET22b (NdeI/XhoI); also called PFV-CtDCEN; source: E. coli Rosetta 2 (DE3), purified (Ni-NTA, SEC on Superdex 75)
With B1 the Kd [1] was 900 nM, the Ka [2] was 1.1e+06 M⁻¹ and the “stoichiometry N” value [2] was 2.
